Laboratory results published in patent US11110182B2, “Multifunctional RNA nanoparticles and methods for treating cancer and therapeutic resistant cancer” (University of Cincinnati, priority 2016, dated 2021).

Tests used:
[1] = tested on: HER2-overexpressing BT474 cells; experiment: pRNA nanoparticle cellular uptake assay (confocal, flow cytometry), BT474; assay type: cell-based, human; details: for cellular uptake by flow cytometry: BT474, 3 h incubation at 37° C.; for binding and internalization into cells: BT474, AF647-conjugated, 10 μg/mL, confocal microscopy
Protocol: FIG. 2A) Confocal microscopy analyses of the internalization of AF647-labeled control and pRNA-HER2apt-siMED1 nanoparticles by BT474 cells. Scale bar: 10 μm. FIG. 2B) Flow cytometry assays of the cellular uptake of AF647-labeled control and pRNA-HER2apt-siMED1 nanoparticles by BT474 cells. FIG. 2C) IVIS Lumina live imaging of BT474 orthotopic xenograft mice 24 hrs after i.v. injection of indicated AF647-labeled pRNA nanoparticles (10 mg/Kg). FIG. 2D) Major organs and tumors of above mice were excised and imaged for AF647 fluorescence. FIG. 2E) Frozen tumor sections were examined for localization of AF647-labeled pRNA nanoparticles (red) using confocal microscopy. The blood vessels were stained with anti-CD31 primary antibody and Alexa488-conjugated secondary antibody (green). The nuclei were stained with DAPI (blue). Scale bar: 50 μm. FIG. 2F) The fluorescence intensity of AF647-labeled pRNA nanoparticles (red) in frozen tumor sections was quantified with Image-pro Plus software.
Cell culture. Human breast cancer luciferase-overexpressing BT474 and MDA-MB-231 cells were maintained in DMEM medium (Hyclone, Thermo Scientific) supplemented with 10% fetal bovine serum (FBS, Sigma) and 1% penicillin/streptomycin (Corning) at 37° C. in a humidified atmosphere with 5% CO2.^53 • Generation of pRNA nanoparticles. The two strands of pRNA were synthesized with the DNA templates, which were amplified with overlapping primers (Sigma) by PCR methods, using a T7 promoter-controlled in vitro RNA transcription system as previously described^33 (Table 1). All the CTP and UTP used for synthesis of the pRNA nanoparticles were 2′-fluoro modified, except the control unmodified pRNA nanoparticles used in the stability assays. Following an overnight transcription at 37° C., RNA strands were purified using RNA clean and concentrator kits (ZYMO research) and examined by 8 M urea denatured 8% PAGE gel. pRNA nanoparticles were assembled by mixing the equal molar amounts of p1 and p2 strands and gradually annealing from 90° C. to 20° C. in 1×RNA annealing buffer containing 50 mM Tris-HCl (pH 7.5), 50 mM NaCl and 1 mM EDTA on a PCR machine. […] The hydrodynamic diameter and Tm value of pRNA nanoparticles were determined using dynamic light scattering and TGGE assay, respectively, as previously described.^54 The AFM imaging of the pRNA nanoparticles was performed at the University of Nebraska Medical Center imaging facility as previously reported.^55 Briefly, the pRNA nanoparticles (5 μL) were deposited on APS modified mica ^56 for a total of 2 min of incubation time. […]

MED1 = MED1 protein level by western blots in MDA-MB-231 cells; assay type: cell-based, human; details: MDA-MB-231, transfected, 48 h
From the text: FIG. 8A) HER2 expression in BT474 and MDA-MB-231 cells determined by western blot analyses. FIG. 8B) The binding of AF-647-labeled pRNA-HER2apt-siMED1 and its mutant nanoparticles to MDA-MB-231 and BT474 cells examined by confocal microscopy. Green represents the immunofluorescent staining of HER2, and blue represents nuclear staining with DAPI. FIG. 8C) The internalization of AF647-labeled pRNA nanoparticles by MDA-MB-231 cells examined by confocal microscopy. Green represents the immunofluorescent staining of β-actin. Scale bar: 10 μm. FIG. 8D) The cellular uptake of AF647-labeled pRNA nanoparticles by MDA-MB-231 cells quantified by flow cytometry. FIG. 8E) HER2 expression in BT474 xenograft tumors was examined by western blot analyses. FIG. 8F) MDA-MB-231 cells were incubated directly with (as indicated by-) or transfected with pRNAs using lipofectamine 2000. At 48 h post treatment, MED1 protein levels were determined by western blots.
Cell culture. […] The hydrodynamic diameter and Tm value of pRNA nanoparticles were determined using dynamic light scattering and TGGE assay, respectively, as previously described.^54 The AFM imaging of the pRNA nanoparticles was performed at the University of Nebraska Medical Center imaging facility as previously reported.^55 Briefly, the pRNA nanoparticles (5 μL) were deposited on APS modified mica ^56 for a total of 2 min of incubation time. […]

Molecule	cellular uptake by flow cytometry [1]	binding and internalization into cells [1]	MED1 protein level after transfection with lipofectamine 2000 (MED1)
pRNA-HER2apt-siMED1: 3-WJ pRNA nanoparticle bearing a HER2-targeting RNA aptamer and two different MED1 siRNAs; strands p1 SEQ ID NO: 3, p2 SEQ ID NO: 4 (nucleic acid, 2'-F modification; third strand may lack entry; pRNA-HER2apt-siMED1, p1; pRNA-HER2apt-siMED1, p2) chain 1: GGACAGUGAAAGUGAGUCAAAGGAUCAAUCAUGGCCAAAGAUGUUACUUUGAGAGCCUU chain 2: GGCUCUCAAAGUAACAUCUAAGGCCAUGUGUAUGUGGGGGGAGGACGAUGCGGUCUGCUGUGCUUGAUAUGCCCCAGACGACUCGCCCCCCACAUACUUUGUUGAUCCAAUGACUCACUUUCACUGUCCUU	effectively taken up	can bind and be readily internalized	MED1 silencing
pRNA-HER2apt^mut-siMED1: control pRNA nanoparticle with mutant HER2 aptamer; strands p1 SEQ ID NO: 5, p2 SEQ ID NO: 6 (nucleic acid, pRNA-HER2apt(mut)-siMED1, p1; pRNA-HER2apt(mut)-siMED1, p2) chain 1: GGACAGUGAAAGUGAGUCAAAGGAUCAAUCAUGGCCAAAGAUGUUACUUUGAGAGCCUU chain 2: GGCUCUCAAAGUAACAUCUAAGGCCAUGUGUAUGUGGGAUGAGGAGUAUGAAGAUACCUGUACUUGAUAUGCCCCAGACGACAUUCCCCCCACAUACUUUGUUGAUCCAAUGACUCACUUUCACUGUCCUU	notably decreased the uptake efficiency	dramatically impaired	MED1 silencing
